Experimental data: article PMC7610980

Biological target: bat RaTG13 spike (S) glycoprotein ectodomain (bat coronavirus RaTG13)
Experiment: BLI

Sequence of human ACE2 ectodomain (residues 19-615) (Q9BYF1 19-615): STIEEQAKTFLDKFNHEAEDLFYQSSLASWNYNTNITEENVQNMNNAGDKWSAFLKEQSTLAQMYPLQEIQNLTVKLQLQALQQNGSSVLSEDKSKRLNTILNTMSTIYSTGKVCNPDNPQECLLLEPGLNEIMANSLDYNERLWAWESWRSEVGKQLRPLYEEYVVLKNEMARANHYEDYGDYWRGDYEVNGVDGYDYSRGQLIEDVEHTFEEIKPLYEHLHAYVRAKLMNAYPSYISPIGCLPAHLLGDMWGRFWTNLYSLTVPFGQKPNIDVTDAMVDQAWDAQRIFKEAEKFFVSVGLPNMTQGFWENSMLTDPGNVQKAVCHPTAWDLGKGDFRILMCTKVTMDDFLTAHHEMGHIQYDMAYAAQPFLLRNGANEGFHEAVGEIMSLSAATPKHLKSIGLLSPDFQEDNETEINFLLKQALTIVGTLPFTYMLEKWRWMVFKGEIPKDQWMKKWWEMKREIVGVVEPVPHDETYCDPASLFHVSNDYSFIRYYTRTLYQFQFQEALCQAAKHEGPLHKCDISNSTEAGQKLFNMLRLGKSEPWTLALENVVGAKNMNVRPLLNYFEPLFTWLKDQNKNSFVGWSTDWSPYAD

human ACE2 ectodomain (residues 19-615) (from UniProt Q9BYF1-1 19-615) (receptor)
Kd: > 40 µM
